Molecular target: T1, cynomolgus monkey IL-13 (NHP IL-13) (cynomolgus monkey, UniProt Q5I6E4 21-132 (Macaca thibetana entry))
T1 construct: Also used here for the IL-13 found in cynomolgus monkey serum; also called non-human primate IL-13; cynomolgus IL-13
T1 chain: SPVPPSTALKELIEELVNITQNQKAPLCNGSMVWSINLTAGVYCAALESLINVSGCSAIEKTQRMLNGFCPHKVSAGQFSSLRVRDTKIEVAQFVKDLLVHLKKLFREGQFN
Assay: direct NHP IL-13 binding ELISA
Text: The humanized MJ 2-7 V3 and V4 were produced in COS cells by combining hMJ 2-7 VH V1 with hMJ 2-7 VL V3 and V4. The antigen binding properties of the antibodies were examined by direct NHP IL-13 binding ELISA.

B1: humanized MJ 2-7 V3 (hMJ 2-7 VH V1 with hMJ 2-7 VL V3) (antibody, V domains shown)
VH: QVQLVQSGAEVKKPGASVKVSCKASGFNIKDTYIHWVRQAPGQRLEWMGRIDPANDNIKYDPKFQGRVTITRDTSASTAYMELSSLRSEDTAVYYCARSEENWYDFFDYWGQGTLVTVSS
VL: DVVMTQSPLSLPVTLGQPASISCRSSQSLVYSDGNTYLNWFQQRPGQSPRRLIYKVSNRFSGVPDRFSGSGSGTDFTLKISRVEAEDVGVYYCFQGSHIPYTFGGGTKVEIK
notes: Produced in COS cells; VL V3: DPK18 with human germline CDR1 and CDR2 and the CDR3 of mouse MJ2-7; also called hMJ2-7 V3; Version 3
  binding result: no binding

From patent US20090098142A1 (published 2009)
